For the assay, the target named is T1, NFκB family member p65 (human, UniProt Q04206 1-551).
T1 construct: also called p65 NFκB protein
Description: EMSA gel supershift, HT29 nuclear extract on κB1 oligonucleotide. The method, then: Gel supershift assays were performed as described above, except that antibodies specific for various promoter-binding proteins were added after the initial binding reaction and the mixture was incubated overnight at 4° C.
On the technique in general: In EMSA bound probe runs differently from free probe, usually more slowly.

T1 sequence (Q04206 whole entry): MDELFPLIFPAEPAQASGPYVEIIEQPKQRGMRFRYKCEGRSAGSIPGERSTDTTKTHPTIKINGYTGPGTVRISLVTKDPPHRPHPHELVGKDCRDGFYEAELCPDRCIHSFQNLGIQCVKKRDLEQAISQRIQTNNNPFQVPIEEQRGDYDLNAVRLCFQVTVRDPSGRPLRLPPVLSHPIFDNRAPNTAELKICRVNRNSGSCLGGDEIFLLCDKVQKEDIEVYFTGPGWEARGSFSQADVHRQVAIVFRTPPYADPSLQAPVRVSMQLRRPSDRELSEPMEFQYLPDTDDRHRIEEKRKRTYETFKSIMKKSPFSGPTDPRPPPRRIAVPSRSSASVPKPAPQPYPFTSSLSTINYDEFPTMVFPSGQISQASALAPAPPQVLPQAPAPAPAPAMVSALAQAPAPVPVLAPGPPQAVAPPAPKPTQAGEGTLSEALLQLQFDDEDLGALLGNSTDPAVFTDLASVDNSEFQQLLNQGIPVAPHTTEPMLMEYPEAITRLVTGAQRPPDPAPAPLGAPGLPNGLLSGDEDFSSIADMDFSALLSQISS

B1: NFκB family member p50 (other, human, UniProt P19838 1-433, looked up)
chain: MAEDDPYLGRPEQMFHLDPSLTHTIFNPEVFQPQMALPTDGPYLQILEQPKQRGFRFRYVCEGPSHGGLPGASSEKNKKSYPQVKICNYVGPAKVIVQLVTNGKNIHLHAHSLVGKHCEDGICTVTAGPKDMVVGFANLGILHVTKKKVFETLEARMTEACIRGYNPGLLVHPDLAYLQAEGGGDRQLGDREKELIRQAALQQTKEMDLSVVRLMFTAFLPDSTGSFTRRLEPVVSDAIYDSKAPNASNLKIVRMDRTAGCVTGGEEIYLLCDKVQKDDIQIRFYEEEENGGVWEGFGDFSPTDVHRQFAIVFKTPKYKDINITKPASVFVQLRRKSDLETSEPKPFLYYPEIKDKEEVQRKRQKLMPNFSDSFGGGSGAGAGGGGMFGSGGGGGGTGSTGPGYSFPHYGFPTYGGITFHPGTTKSNAGMKHG
notes: also called p50 NFκB protein
Turning to B1, the binding result was “binds”.

(Values after patent US20070238638A1 (TANOX, published 2007).)
